± gives the standard deviation of the averaged measurements.

The nature of the data set: total protein half-life in vivo (active degradation + dilution); higher = more stable protein.
[1] abbreviates: E. coli NCM3722 delta-clpP delta-lon delta-hslV, growth: N-lim chemostat, doubling time 6 h.
The mark [2] stands for this setting: E. coli NCM3722 delta-clpP, growth: N-lim chemostat, doubling time 6 h.
[3] abbreviates: E. coli NCM3722 delta-hslV, growth: N-lim chemostat, doubling time 6 h.
[4] abbreviates: E. coli NCM3722 delta-lon, growth: N-lim chemostat, doubling time 6 h.
Setting [5] is: E. coli NCM3722 delta-smpB, growth: N-lim chemostat, doubling time 6 h.
Setting [6] is: wild type E. coli NCM3722, growth: C-lim chemostat, doubling time 6 h.
Where [7] appears, read: wild type E. coli NCM3722, growth: C-lim chemostat, doubling time 12 h.
[8] abbreviates: wild type E. coli NCM3722, growth: N-lim chemostat, doubling time 6 h.
Setting [9] is: wild type E. coli NCM3722, growth: N-lim chemostat, doubling time 12 h.
[10] abbreviates: wild type E. coli NCM3722, growth: P-lim chemostat, doubling time 6 h.
[11] abbreviates: wild type E. coli NCM3722, growth: P-lim chemostat, doubling time 12 h.
Setting [12] is: wild type E. coli NCM3722, growth: C-lim chemostat, doubling time 3 h.

With “MRLFAQLSWYFRREWRRYLGAVALLVIIAMLQLVPPKVVGIVVDGVTEQHFTTGQILMWIATMVLIAVVVYLLRYVWRVLLFGASYQLAVELREDYYRQLSRQHPEFYLRHRTGDLMARATNDVDRVVFAAGEGVLTLVDSLVMGCAVLIMMSTQISWQLTLFSLLPMPVMAIMIKRNGDALHERFKLAQAAFSSLNDRTQESLTSIRMIKAFGLEDRQSALFAADAEDTGKKNMRVARIDARFDPTIYIAIGMANLLAIGGGSWMVVQGSLTLGQLTSFMMYLGLMIWPMLALAWMFNIVERGSAAYSRIRAMLAEAPVVNDGSEPVPEGRGELDVNIHQFTYPQTDHPALENVNFALKPGQMLGICGPTGSGKSTLLSLIQRHFDVSEGDIRFHDIPLTKLQLDSWRSRLAVVSQTPFLFSDTVANNIALGCPNATQQEIEHVARLASVHDDILRLPQGYDTEVGERGVMLSGGQKQRISIARALLVNAEILILDDALSAVDGRTEHQILHNLRQWGQGRTVIISAHRLSALTEASEIIVMQHGHIAQRGNHDVLAQQSGWYRDMYRYQQLEAALDDAPENREEAVDA”, the “total protein half-life in vivo” value was found to be 6.33 ± 0.2 h under setting [1]; 6.624 ± 0.017 h under setting [2]; 5.58 ± 1.5 h under setting [3]; 4.42 ± 0.37 h under setting [4]; 4.26 ± 0.096 h under setting [5]; 4.99 ± 0.061 h under setting [6]. The “total protein half-life in vivo” value turned out to be 11.1 ± 1.6 h under setting [7]; 4.77 ± 0.67 h under setting [8]; 7.121 ± 0.033 h under setting [9]; 6.08 ± 0.52 h under setting [10]; 11.6 ± 3.3 h under setting [11].
Take “MIKATDRKLVVGLEIGTAKVAALVGEVLPDGMVNIIGVGSCPSRGMDKGGVNDLESVVKCVQRAIDQAELMADCQISSVYLALSGKHISCQNEIGMVPISEEEVTQEDVENVVHTAKSVRVRDEHRVLHVIPQEYAIDYQEGIKNPVGLSGVRMQAKVHLITCHNDMAKNIVKAVERCGLKVDQLIFAGLASSYSVLTEDERELGVCVVDIGGGTMDIAVYTGGALRHTKVIPYAGNVVTSDIAYAFGTPPSDAEAIKVRHGCALGSIVGKDESVEVPSVGGRPPRSLQRQTLAEVIEPRYTELLNLVNEEILQLQEKLRQQGVKHHLAAGIVLTGGAAQIEGLAACAQRVFHTQVRIGAPLNITGLTDYAQEPYYSTAVGLLHYGKESHLNGEAEVEKRVTASVGSWIKRLNSWLRKEF [P0ABH0]”: the “total protein half-life in vivo” value under setting [1] stood at 6.03 ± 0.16 h; the “total protein half-life in vivo” value under setting [2] was determined as 6.41 ± 0.51 h; the “total protein half-life in vivo” value under setting [3] was 6.33 ± 0.27 h; the “total protein half-life in vivo” value under setting [4] was determined as 6.06 ± 0.5 h; the “total protein half-life in vivo” value under setting [5] came out at 5.42 ± 0.13 h; the “total protein half-life in vivo” value under setting [12] was found to be 3.04 ± 0.12 h. The “total protein half-life in vivo” value runs as follows: under setting [6], 5.738 ± 0.047 h; under setting [7], 10 ± 0.52 h; under setting [8], 5.48 ± 0.26 h; under setting [9], 10.8 ± 0.71 h; under setting [10], 5.868 ± 0.02 h; under setting [11], 11.3 ± 0.42 h.
For the sequence “MSVMLQSLNNIRTLRAMAREFSIDVLEEMLEKFRVVTKERREEEEQQQRELAERQEKISTWLELMKADGINPEELLGNSSAAAPRAGKKRQPRPAKYKFTDVNGETKTWTGQGRTPKPIAQALAEGKSLDDFLI [P0ACG1]”, the “total protein half-life in vivo” value reads like this: under setting [1], 7.04 ± 1.3 h; under setting [2], 6.38 ± 0.2 h; under setting [3], 6.63 ± 0.19 h; under setting [4], 7.2 ± 0.27 h; under setting [5], 5.86 ± 0.72 h; under setting [12], 3 ± 0.032 h. Moreover, the “total protein half-life in vivo” value by setting is: under setting [6], 5.941 ± 0.033 h; under setting [7], 8.33 ± 0.14 h; under setting [8], 4.94 ± 0.73 h; under setting [9], 12 ± 4 h; under setting [10], 5.04 ± 1.5 h; under setting [11], 11 ± 0.95 h.
As to “MTTMNPFLVQSTLPYLAPHFDQIANHHYRPAFDEGMQQKRAEIAAIALNPQMPDFNNTILALEQSGELLTRVTSVFFAMTAAHTNDELQRLDEQFSAELAELANDIYLNGELFARVDAVWQRRESLGLDSESIRLVEVIHQRFVLAGAKLAQADKAKLKVLNTEAATLTSQFNQRLLAANKSGGLVVNDIAQLAGMSEQEIALAAEAAREKGLDNKWLIPLLNTTQQPALAEMRDRATREKLFIAGWTRAEKNDANDTRAIIQRLVEIRAQQATLLGFPHYAAWKIADQMAKTPEAALNFMREIVPAARQRASDELASIQAVIDKQQGGFSAQPWDWAFYAEQVRREKFDLDEAQLKPYFELNTVLNEGVFWTANQLFGIKFVERFDIPVYHPDVRVWEIFDHNGVGLALFYGDFFARDSKSGGAWMGNFVEQSTLNKTHPVIYNVCNYQKPAAGEPALLLWDDVITLFHEFGHTLHGLFARQRYATLSGTNTPRDFVEFPSQINEHWATHPQVFARYARHYQSGAAMPDELQQKMRNASLFNKGYEMSELLSAALLDMRWHCLEENEAMQDVDDFELRALVAENMDLPAIPPRYRSSYFAHIFGGGYAAGYYAYLWTQMLADDGYQWFVEQGGLTRENGLRFREAILSRGNSEDLERLYRQWRGKAPKIMPMLQHRGLNI”, the “total protein half-life in vivo” value came out at 5.48 ± 0.74 h under setting [1]; 4.67 ± 0.22 h under setting [2]; 4.335 ± 0.038 h under setting [3]; 4.65 ± 0.16 h under setting [4]; 4.43 ± 0.24 h under setting [5]; 3.13 ± 0.13 h under setting [12]. Besides, the “total protein half-life in vivo” value is, setting by setting: under setting [6], 5.67 ± 0.52 h; under setting [7], 9.87 ± 0.43 h; under setting [8], 4.53 ± 0.2 h; under setting [9], 7.84 ± 0.66 h; under setting [10], 6.12 ± 0.066 h; under setting [11], 11.7 ± 0.94 h.
For “MLYIFDLGNVIVDIDFNRVLGAWSDLTRIPLASLKKSFHMGEAFHQHERGEISDEAFAEALCHEMALPLSYEQFSHGWQAVFVALRPEVIAIMHKLREQGHRVVVLSNTNRLHTTFWPEEYPEIRDAADHIYLSQDLGMRKPEARIYQHVLQAEGFSPSDTVFFDDNADNIEGANQLGITSILVKDKTTIPDYFAKVLC [P0A8Y3]”, the “total protein half-life in vivo” value is, setting by setting: under setting [2], 5.75 ± 1.6 h; under setting [3], 3.94 ± 0.21 h; under setting [4], 5 ± 0.69 h; under setting [5], 4.212 ± 0.04 h; under setting [12], 2.92 ± 0.13 h; under setting [6], 6.31 ± 0.65 h. The “total protein half-life in vivo” value under setting [7] is 9.46 ± 0.36 h; the “total protein half-life in vivo” value under setting [8] was determined as 4.14 ± 0.74 h; the “total protein half-life in vivo” value under setting [9] worked out at 6.16 ± 0.12 h; the “total protein half-life in vivo” value under setting [10] was 5.18 ± 0.06 h; the “total protein half-life in vivo” value under setting [11] was determined as 9.4 ± 0.48 h.

These data come from the supplement of paper PMC11246515.
